The results in this text go back to the RNAGym collection of RNA variant scans (doi:10.7554/elife.80360).

To fix the notation:
B1: HDV Ribozyme (parent)
chain: GGCCGGCAUGGUCCCAGCCUCCUCGCUGGCGCCGGCUGGGCAACAUUCCGAGGGGACCGUCCCCUCGGUAAUGGCGAAUGGGACCCA

The variants in the series derive from B1. Put plainly: self-cleavage, relative activity (ratio to wild type); higher = more cleavage; co-transcriptional.
Turning to U9G A70U, the self-cleavage was determined as 0.739.
As to G35A A78C, the self-cleavage came to 0.0528.
Regarding G10U U65C, the self-cleavage was found to be 0.831.
On to C84G C86G, for which the self-cleavage stood at 0.522.
Turning to A77G C84A, the self-cleavage was 0.464.
As for G6C U69G, the self-cleavage amounted to 0.166.
Take C22U U46G: the self-cleavage was 0.192.
As to G50A A71U, the self-cleavage is 0.881.
To U20G C21U belongs 0.26; to A43C C57G, 0.655.
Turning to C62U G81A, the self-cleavage is 0.531.
The value for G25A U37C was 0.141; that for A16C A70C was 0.731.
The value for A16C G29C was 0; that for G35U C41G was 0.188; that for A43U G50A was 0.47.
For the variant G17U C86G, the self-cleavage stood at 0.583.
To G1A G40C belongs 0.0437; to C7A C61A, 0.692; to U69A A71C, 0.935.
To G6U G28A belongs 0; to G35U C86A, 0.35.
Consider C26U A70U, for which the self-cleavage was found to be 1.01.
For the variant C15U G53A, the self-cleavage was 0.912.
On to G10U A56C, for which the self-cleavage was 0.878.
Consider G50U U79C, for which the self-cleavage was determined as 0.507.
With G31A A56U, the self-cleavage was 0.482.
For C13U G34A, the self-cleavage is 0.0875.
The value for C36G C44U was 0.0426; that for G11C C66A was 0.285.
Regarding G2U C58G, the self-cleavage is 0.
To C36U G74C belongs 0.253; to C84A C86G, 0.755.
The value for A8U C14G was 0.237.
A51G U65G: the self-cleavage is 0.682.
To C3G A56G belongs 0.692; to C36G C61G, 0.0386; to U60G C63A, 0.831.
The value for C4G G67A was 0.437; that for A56U G80U was 0.237; that for G35U A83U was 0.145.
On to C7A C32U, for which the self-cleavage turned out to be 0.227.
For the variant G2U C66A, the self-cleavage amounted to 0.0525.
The value for C33A C36A was 0.213; that for G39A U65G was 0.264; that for C75U A78C was 0.
The value for U9A G31C was 0.287.
The value for G76U was 1.03.
G40U U46C: the self-cleavage is 0.227.
To G52C U65C belongs 1.18; to A45U U72C, 1.02; to G2A G17U, 0.0432.
To G40C C57G belongs 0.36; to G50C U72A, 0.789.
Regarding C14U A43C, the self-cleavage amounted to 0.364.
To C3U C22U belongs 0.525; to C33U U46C, 0.68.
To C21U C26A belongs 0.383.
To C14A G53U belongs 0.848.
On to G6A C86G, for which the self-cleavage was found to be 0.802.
The value for G38C C41U was 1.08.
To C19A G67A belongs 0.0941; to C49G G54A, 0.332.
To C30U C86U belongs 0.795.
As for C24U G76U, the self-cleavage was 0.917.
To G38C U65C belongs 0.391.
Take G38C U65G: the self-cleavage came to 0.142.
Turning to G11A G81U, the self-cleavage stood at 0.137.
To C3G G29U belongs 0.0656; to G1U U46A, 0.443; to C18G G28U, 0.0405.
To A51U C66A belongs 0.764; to G25A U60C, 0.138.
To C22U C26A belongs 0.997; to G54U C57U, 0.993.
Turning to G55U G73A, the self-cleavage was 0.533.
In the case of G29C G74A, the self-cleavage is 0.0733.
For U69G G74U, the self-cleavage was 0.607.
The value for C33G G35A was 0.0604.
Regarding U20C G76U, the self-cleavage worked out at 0.17.
Regarding A51G C85G, the self-cleavage worked out at 0.984.
For C49A A87C, the self-cleavage came to 0.95.
As for G52A G68C, the self-cleavage was 0.436.
The value for C18G U23G was 0.
As for A16C C75A, the self-cleavage is 0.133.
C3G G11C: the self-cleavage was 0.225.
The value for G29U G35A was 0.0744; that for C24U U79C was 0.161.
U27A C30G: the self-cleavage came to 0.166.
As for G10C U20G, the self-cleavage was found to be 0.151.
As for C13A C14U, the self-cleavage was found to be 0.18.
The value for C13U G35A was 0.272; that for C15G A83G was 0.185.
As to A56G G59C, the self-cleavage turned out to be 1.3.
Take C84G C85U: the self-cleavage stood at 0.719.
The value for G6C U65C was 0.277.
In the case of G5A G28C, the self-cleavage is 0.104.
In the case of C61A C84G, the self-cleavage was determined as 0.795.
With U9A G80U, the self-cleavage turned out to be 0.213.
As to C63G C64U, the self-cleavage turned out to be 0.753.
Take G10A C57A: the self-cleavage was determined as 0.727.
On to A16G G73U, for which the self-cleavage came to 0.391.
As for G28U A43U, the self-cleavage turned out to be 0.0615.
Turning to C30U U46C, the self-cleavage was found to be 0.0723.
With C44U C61A, the self-cleavage is 0.751.
As to C18U U27C, the self-cleavage is 0.268.
In the case of C18U U27A, the self-cleavage was found to be 0.95.
In the case of G53C C85U, the self-cleavage stood at 0.808.
On to G2C G38U, for which the self-cleavage was 0.0764.
To A56C G59C belongs 1.05.
On to C7U G17U, for which the self-cleavage is 0.259.
To C26A U37A belongs 0.166; to C13U G59C, 0.587; to U12C G82C, 0.0504.
The value for G28C was 0.0814.
The value for G17C C26U was 0.359.
Consider G17U U69C, for which the self-cleavage was found to be 0.869.
Take C14A U20A: the self-cleavage amounted to 0.
On to C62A G68C, for which the self-cleavage was found to be 0.883.
The value for G34A C41A was 0.157; that for A43G U72C was 0.434.
To G53U C84U belongs 0.821.
Turning to C58U U65C, the self-cleavage is 1.03.
To C49G C61G belongs 0.618.
With G6U C84U, the self-cleavage turned out to be 0.208.
As for C14A G52C, the self-cleavage amounted to 0.782.
To C18A G29C belongs 0.266.
Take C24A U65C: the self-cleavage came out at 0.658.
Regarding C24A G29C, the self-cleavage came to 0.136.
The value for C7G A45U was 0.383; that for G35C C61U was 0.188.
For G10A G31A, the self-cleavage was 0.203.
To C4A A77G belongs 0.0369.
As to C19G C32G, the self-cleavage is 0.0462.
The value for G40U C75G was 0.166; that for C22U C63G was 0.782.
To G10U U20C belongs 0; to G25U C48A, 0.332.
For G28U G52C, the self-cleavage was 0.154.
To U72G G76U belongs 0.646.
Turning to U72G G76C, the self-cleavage was 0.594.
To C26A A45G belongs 0.978; to G1A U65A, 0.0692.
To G73A C75U belongs 0.119; to G40U G80A, 0.197; to A42U U69C, 0.437.
With C26G U60G, the self-cleavage was 0.525.
To C7G G40A belongs 0.0536.
Regarding U12C C85G, the self-cleavage was 0.447.
The value for G54C C61G was 1.16; that for G6A A78C was 0.0615; that for A45U U69C was 0.959.
With G1U U79A, the self-cleavage was found to be 0.178.
The value for G74U C86U was 0.648; that for C36G A87C was 0.146; that for C36U C49U was 0.743.
For the variant A71G G82U, the self-cleavage turned out to be 0.312.
To A42G G54U belongs 0.502.
G17A G73U: the self-cleavage is 0.188.
To C4G C62A belongs 0.446; to G2A U72C, 0.0455.
For G17A G80C, the self-cleavage came to 0.345.
In the case of G55C A83C, the self-cleavage turned out to be 0.314.
On to U27G G54C, for which the self-cleavage worked out at 0.914.
To G38A U69C belongs 0.31; to G68C U79G, 0.516.
C49A G68U: the self-cleavage was determined as 0.817.
